These results are taken from US12590951B2, “Culture medium and culture method for primary cells of intestinal cancer” (PRECEDO PHARMACEUTICALS CO., LTD, priority 2021, dated 2026).

B1: KGF: medium additive from R&D (protein, UniProt P21781 32-194, looked up)
Fibroblast growth factor 7: CNDMTPEQMATNVNCSSPERHTRSYDYMEGGDIRVRRLFCRTQWYLRIDKRGKVKGTQEMKNNYNIMEIRTVAVGIVAIKGVESEFYLAMNKEGKLYAKKECNEDCNFKELILENHYNTYASAKWTHNGGEMFVALNQKGIPVRGKKTKKEQKTAHFLPMAIT
B2: R-spondin1: medium additive, R-spondin family protein from R&D (protein, UniProt Q2MKA7 21-263, looked up)
R-spondin-1: SRGIKGKRQRRISAEGSQACAKGCELCSEVNGCLKCSPKLFILLERNDIRQVGVCLPSCPPGYFDARNPDMNKCIKCKIEHCEACFSHNFCTKCKEGLYLHKGRCYPACPEGSSAANGTMECSSPAQCEMSEWSPWGPCSKKQQLCGFRRGSEERTRRVLHAPVGDHAACSDTKETRRCTVRRVPCPEGQKRRKGGQGRRENANRNLARKESKEAGAGSRRRKGQQQQQQQGTVGPLTSAGPA
B3: FGF10: medium additive from sino biological (protein, UniProt O15520 38-208, looked up)
Fibroblast growth factor 10: QALGQDMVSPEATNSSSSSFSSPSSAGRHVRSYNHLQGDVRWRKLFSFTKYFLKIEKNGKVSGTKKENCPYSILEITSVEIGVVAVKAINSNYYLAMNKKGKLYGSKEFNNDCKLKERIEENGYNTYASFNWQHNGRQMYVALNGKGAPRRGQKTRRKNTSAHFLPMVVHS
B4: Noggin: medium additive from R&D (protein, UniProt Q13253 28-232, looked up)
Noggin: QHYLHIRPAPSDNLPLVDLIEHPDPIFDPKEKDLNETLLRSLLGGHYDPGFMATSPPEDRPGGGGGAAGGAEDLAELDQLLRQRPSGAMPSEIKGLEFSEGLAQGKKQRLSKKLRRKLQMWLWSQTFCPVLYAWNDLGSRFWPRYVKVGSCFSKRSCSVPEGMVCKPSKSVHLTVLRWRCQRRGGQRCGWIPIQYPIISECKCSC
B5: IL-22: medium additive from Peprotech (protein, UniProt Q9GZX6 34-179, looked up)
Interleukin-22: APISSHCRLDKSNFQQPYITNRTFMLAKEASLADNNTDVRLIGEKLFHGVSMSERCYLMKQVLNFTLEEVLFPQSDRFQPYMQEVVPFLARLSNRLSTCHIEGDDLHIQRNVQKLKDTVKKLGESGEIKAIGELDLLFMSLRNACI

For the experiment, the system named is primary cells of intestinal cancer. The experiment can be described thus: Effect of single additives in Basic Medium on proliferation of primary cells of intestinal cancer (cell count). On the set-up: key: +: compared with the Basic Medium, the medium added with the additive(s) has the effect of promoting the proliferation of primary cells of intestinal cancer isolated from intestinal cancer tissue in at least two cases; −: the medium added with the additive(s) has the effect of inhibiting the proliferation of primary cells of intestinal cancer isolated from intestinal cancer tissue in at least one case; ∘: the medium added with the additive(s) has no significant effect on the proliferation of primary cells of intestinal cancer isolated from intestinal cancer tissue in at least two cases. The class given is cell-based, human. The note with it: additive at the final concentration in Basic Medium; samples OE0042 and OE(E)003; 7-10 days; compared with Basic Medium. The method, then:
First, Basic Medium was prepared. The formulation of Basic Medium is: DMEM/F12 medium (purchased from Corning)+5 μM Y27632 (purchased from MCE)+5% (v/v) fetal bovine serum (purchased from Excell Bio)+100 μg/mL Primocin (purchased from InvivoGen, 0.2% (v/v), the concentration of commercial product is 50 mg/ml).
Different types of additives (see Table 1) were added to the Basic Medium to prepare the culture mediums for primary cells of intestinal cancer containing different components.
The culture mediums of different components as shown in Table 1 were added into a 48-well plate at a volume of 1 mL/well. Primary cells of intestinal cancer isolated from two cases of intestinal cancer tissues (numbered OE0042 and OE(E)003) according to the above step (2) were inoculated into the 48-well culture plate at a cell density of 3×10^4 cells/well, and were cultured at 37° C., under 5% CO2 concentration. After culturing for 7-10 days, when the cells grew to 85%, the culture medium was discarded, and 100 μL/well of 0.05% trypsin (purchased from Gibco) was used to rinse the cells once. After the trypsin was removed, 200 μL of 0.05% trypsin was added to each well. The plate was then placed in a 37° C., 5% CO2 incubator for 10 minutes, and the cells were observed under a microscope (CNOPTEC, BDS400), showing that the cells had completely digested. 300 μL of DMEM/F12 medium containing 10% serum (Excell Bio, FND500) was added to stop the digestion. 20 μL of the resultant was added into a cell counting plate (Countstar, specification: 50 pieces/box), and the total number of cells was counted with a cell counter (Countstar, IC1000). Specifically, Basic Medium without any additives was used as an experimental control, and the experimental results are shown in Table 1.
For the molecule B1, the “Level of promoting cell proliferation” value is given as “∘”.

With B2, the “Level of promoting cell proliferation” value is on record as “∘”.

Take B3: the “Level of promoting cell proliferation” value is “−”.

Regarding B4, the “Level of promoting cell proliferation” value is “∘”.

As for B5, the “Level of promoting cell proliferation” value is “−”.
